Values of other authors in publication PMC7599640.

Target: alpha-bungarotoxin (Bungarus multicinctus) (UniProt P60615)
Sequence of UniProt P60615 (P60615 22-95): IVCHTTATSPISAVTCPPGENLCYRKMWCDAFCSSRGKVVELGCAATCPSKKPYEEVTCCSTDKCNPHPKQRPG

Substance: Nicotinic acetylcholine receptor (from UniProt P02710)
- Kd: 400 pM
